This is an account of results in publication PMC11148769.

The test deals with BA.2.12.1 S trimer (SARS-CoV-2) (UniProt P0DTC2). Description: cryo-EM structure.

By stoichiometry N is commonly meant the number of molecules, sites or subunits per partner or assembly. In turn, “BA.2.12.1 S trimer (from UniProt P0DTC2 28-1208) (natural protein)” yielded a stoichiometry N of 3.
